The values that follow come from PMC10315065 (Journal of Innate Immunity, 2023).

For the experiment, the target named is human glyceraldehyde-3-phosphate dehydrogenase (GAPDH) (human, UniProt P04406 1-335, fluorescent dye NT-647 (Monolith NT Protein Labeling Kit RED-NHS)). The experiment is described as follows: MST.

By Kd is commonly meant the equilibrium constant for the complex coming apart.

human glyceraldehyde-3-phosphate dehydrogenase (GAPDH), sequence (P04406 whole entry): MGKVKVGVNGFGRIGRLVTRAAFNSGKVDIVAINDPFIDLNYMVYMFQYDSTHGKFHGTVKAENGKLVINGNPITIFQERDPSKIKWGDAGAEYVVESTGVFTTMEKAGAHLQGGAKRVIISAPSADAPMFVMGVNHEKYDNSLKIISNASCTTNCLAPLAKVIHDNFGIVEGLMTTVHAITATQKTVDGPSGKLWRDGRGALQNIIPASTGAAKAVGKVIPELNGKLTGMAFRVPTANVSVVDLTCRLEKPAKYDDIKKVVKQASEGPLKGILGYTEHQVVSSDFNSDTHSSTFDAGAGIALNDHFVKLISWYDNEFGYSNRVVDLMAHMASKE

As to GLLRKGGEKIGEKLKKIGQKIKNFFQKLVPQPEQ [Mouse cathelicidin-related antimicrobial peptide], binding was characterised by a dissociation constant (Kd) of 472 nM.
